Reference: patent publication US11932673B2, “Sodium channel inhibitors” (priority 2017, dated 2024)

Tests used:
trypsin [1] = test: Phage TRF binding assay of KnotBody phage on immobilised biotinylated trypsin
Procedure: Phage display technology facilitates isolation of binders to any given target from large combinatorial repertoires based on proteins and peptides that can be presented on the surface of filamentous phage^105. In order to isolate functional knottin-antibody fusions from the KnotBody libraries multiple rounds of phage display selections on trypsin (cognate antigen for the EETI-II donor) were carried out. Phage particles were prepared by rescuing KnotBody libraries using trypsin cleavable helper phage^102,106 Two rounds of phage display selections were performed on 10 μg/ml biotinylated trypsin immobilised on Streptavidin (for Round-1) or Neutravidin (for round-2) coated Maxisorp™ immunotubes (Thermo Scientific, Cat No. 444202). In both rounds of selection, phage libraries were pre-incubated with streptavidin coated paramagnetic beads (Thermo Fisher Scientific, Cat. No. 11205D). These beads were removed prior to the addition the phage to the antigen tubes to limit the streptavidin binders entering the selection. Polyclonal phage preparations from round-2 selection outputs were analysed for trypsin binding using a time resolved fluorescence (TRF) binding assay. In this assay, polyclonal phage binding to biotinylated trypsin immobilised on neutravidin (Thermo Fisher Scientific, Cat. No 31000) coated Maxisorp™ plates (Thermo Scientific, Cat. No. 437111) was detected using a mouse anti-M13 antibody (GE Healthcare, Cat. No. 27-9420-01) followed by europium conjugated anti-mouse antibody (Perkin Elmer, Cat. No. AD0124).
In order to identify monoclonal KnotBodies with desired binding characteristics, 94 individual clones derived from 2 rounds of selection using EETI-II CDR1 or CDR2 libraries were picked into 96 well culture plates and phage were prepared from each clone. Methods for screening by monoclonal phage ELISA are known in the art^107. […] Clones with >3× binding signal above background were picked as positive clones and sequenced to identify unique clones. 14 and 42 unique binders were identified from EETI-II CDR1 and EETI-II CDR2 libraries respectively (Table 1). 18 binders from the EETI-II CDR2 library and 3 binders from the EETI-II-CDR1 library were chosen for further characterisation based on their VL and linker sequence diversity. These binders were assigned new clone identification numbers (Table 2). […] In order to confirm that the loss of trypsin binding was not due to reduced expression or display of pIII fusion phage was prepared from 11 (randomly chosen) KnotBodies and their GlyAla variants were analysed on a western blot using an antibody which recognises the product of gene 3 (pIII) using an anti-pIII antibody (MoBiTec GmbH) (FIG. 6).

human Nav1.7 = human Nav1.7 (Homo sapiens, UniProt Q15858); test: QPatch patch-clamp on CHO cells stably expressing human Nav1.7, four-point concentration-response (Example 21); format: cell-based; conditions: every 15-minute application of equivalent concentrations
Sequence of human Nav1.7 (Q15858 other isoform, or with tags, fused parts or gaps): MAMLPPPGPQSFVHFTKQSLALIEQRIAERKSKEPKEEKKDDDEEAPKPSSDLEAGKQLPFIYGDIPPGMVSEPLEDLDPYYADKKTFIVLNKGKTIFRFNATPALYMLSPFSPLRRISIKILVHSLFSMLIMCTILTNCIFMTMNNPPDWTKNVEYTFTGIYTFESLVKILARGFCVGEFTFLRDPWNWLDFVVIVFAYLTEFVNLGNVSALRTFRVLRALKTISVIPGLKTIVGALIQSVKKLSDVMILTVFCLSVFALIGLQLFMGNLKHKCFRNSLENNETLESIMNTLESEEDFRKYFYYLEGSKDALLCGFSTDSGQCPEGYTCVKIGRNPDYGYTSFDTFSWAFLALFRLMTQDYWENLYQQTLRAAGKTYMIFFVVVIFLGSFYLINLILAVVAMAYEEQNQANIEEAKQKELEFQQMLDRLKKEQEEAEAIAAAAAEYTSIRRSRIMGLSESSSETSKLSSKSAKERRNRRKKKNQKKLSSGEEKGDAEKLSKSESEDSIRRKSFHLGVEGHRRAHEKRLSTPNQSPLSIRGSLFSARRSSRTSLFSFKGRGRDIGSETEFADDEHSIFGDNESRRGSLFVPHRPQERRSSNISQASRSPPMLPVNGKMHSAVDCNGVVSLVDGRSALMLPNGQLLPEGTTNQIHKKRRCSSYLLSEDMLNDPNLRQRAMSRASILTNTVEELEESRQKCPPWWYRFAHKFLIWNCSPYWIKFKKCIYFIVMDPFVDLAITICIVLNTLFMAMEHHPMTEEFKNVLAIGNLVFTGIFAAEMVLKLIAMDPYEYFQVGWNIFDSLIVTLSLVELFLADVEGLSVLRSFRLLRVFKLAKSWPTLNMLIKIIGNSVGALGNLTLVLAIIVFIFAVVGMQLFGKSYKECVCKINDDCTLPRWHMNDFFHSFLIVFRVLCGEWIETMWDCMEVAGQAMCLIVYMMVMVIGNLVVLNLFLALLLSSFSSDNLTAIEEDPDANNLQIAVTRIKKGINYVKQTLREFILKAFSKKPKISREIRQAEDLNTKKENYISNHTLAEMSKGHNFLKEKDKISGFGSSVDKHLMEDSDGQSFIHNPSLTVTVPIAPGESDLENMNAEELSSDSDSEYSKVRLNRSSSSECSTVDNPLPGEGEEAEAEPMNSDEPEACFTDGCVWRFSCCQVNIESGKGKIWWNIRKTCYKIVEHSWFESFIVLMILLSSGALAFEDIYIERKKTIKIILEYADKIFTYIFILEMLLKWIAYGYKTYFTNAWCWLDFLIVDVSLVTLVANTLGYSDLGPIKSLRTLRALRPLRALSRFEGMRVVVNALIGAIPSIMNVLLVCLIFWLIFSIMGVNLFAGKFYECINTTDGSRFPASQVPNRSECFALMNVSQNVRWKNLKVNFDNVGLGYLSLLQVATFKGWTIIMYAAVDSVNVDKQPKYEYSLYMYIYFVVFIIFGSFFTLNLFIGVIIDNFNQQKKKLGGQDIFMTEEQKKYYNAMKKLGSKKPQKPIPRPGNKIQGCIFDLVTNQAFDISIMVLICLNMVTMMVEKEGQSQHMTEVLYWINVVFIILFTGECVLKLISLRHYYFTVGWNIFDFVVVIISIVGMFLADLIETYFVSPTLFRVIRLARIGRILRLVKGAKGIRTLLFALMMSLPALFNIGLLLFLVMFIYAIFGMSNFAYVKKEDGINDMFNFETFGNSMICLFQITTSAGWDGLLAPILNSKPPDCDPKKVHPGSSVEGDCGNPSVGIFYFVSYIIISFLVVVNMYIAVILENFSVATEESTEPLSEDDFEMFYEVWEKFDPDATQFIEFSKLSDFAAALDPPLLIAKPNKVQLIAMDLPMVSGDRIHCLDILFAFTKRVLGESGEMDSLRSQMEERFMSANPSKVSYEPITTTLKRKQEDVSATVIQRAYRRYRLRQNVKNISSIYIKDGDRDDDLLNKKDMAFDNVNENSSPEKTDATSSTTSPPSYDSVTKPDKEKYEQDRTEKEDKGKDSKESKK
Procedure: The effect of these KnotBodies on cells expressing human Nav1.7 (huNav1.7) channel was then assessed using QPatch automated patch-clamp platform (Sophion). For the testing of Nav1.7 ion channel currents, CHO cells stably expressing human Nav1.7 (GenBank accession number NM 002977; cell line catalogue number CT6003, Charles River Discovery, Cleveland, USA) were subjected to the QPatch electrophysiology assay in the presence or absence of the KnotBody fusions or the antibody isotypes (negative controls). Internal and external physiological solutions were freshly prepared prior to the assay. […] To these measured control currents four ascending concentrations (0.37, 1.1, 3.3 and 10 μM) of KnotBody or parental antibody isotypes (control molecules) were applied to the external bathing solution containing 0.1% BSA. […] The elicited, maximum outward current values measured during the −10 mV activating step for each solution period (a control, baseline level of current was determined at 15 minutes after application of the control external recording solution and a test level of current was determined after 15 minutes of application of each concentration of KnotBody or its isotype control) and average inhibition was determined. […] From these concentration-response curves IC50 values were calculated.

trypsin [2] = test: Phage trypsin binding assay, KB_A12 versus EETI-II cow ULVC-Ab; conditions: PEG precipitated phage, 12.5x and 0.5x
From the text: Bovine antibodies have been described with natural ultra-long VH CDR3s containing a solvent exposed double stranded antiparallel sheet approximately 20 A° in length (referred to as the stalk) presenting a folded domain stabilised by 3 disulfide bonds (referred to as the Knob)^10. Zhang and colleagues have shown that the Knob domains of these cow ultra-long VH CDR3 antibodies (ULVC-Ab) can be replaced with other folded proteins such as erythropoietin^13. In this example, we assess the ability of a cow ULVC-Ab to present functional knottin fusions on phage in comparison with a KnotBody. In order to create a Knottin-cow UCLA fusion, the sequence between the first and the last cysteines of the knob region of the Cow ULVC-Ab BLV1H12 was replaced with the sequence of the trypsin binding knottin; EETI-II (EETI-II cow ULVC-Ab). A gene fragment encoding this construct was synthesised (Integrated DNA technologies, Table 21). This synthetic gene was cloned into the phage display vector pSANG4 using restriction sites NcoI and NotI and transformed into E. coli TG1 cells. […] In this assay, the binding of phage rescued from EETI-II cow ULVC-Ab and KB_A12 to trypsin was detected using an anti-M13 antibody followed by europium conjugated anti-mouse antibody (as described in example 3).

B1: KB_A12: EETI-II VL CDR2 KnotBody, D1A12 VH, VL SEQ ID NO: 105/373; parental/isotype control (antibody, V domains shown)
VH: EVQLVESGGGLVRPGGSLRLSCAASGFTFSSYAMSWVRQAPGKGLEWVSAISGSGGSTYYADSVKGRFTISRDNTKNSLYLQMTSLRADDTAFYYCVKDFGPGYGTGWFDYWGPGTLVTVSS
VL: QSVLTQPPSVSEAPRQRVTITCSGSSSNIGNNAVNWYQQLPGKAPKLLIYAAGRCPRILMRCKQDSDCLAGCVCGPNGFCGANSGVSDRFSAAKSGTSASLAINGLRSEDEADYYCAAWDDSLNGYVFGTGTKLTVLG
Trypsin [1]; […], monoclonal phage, streptavidin coated plates
  % reduction in binding signal: 99%
Trypsin [1]; monoclonal phage supernatant, biotinylated trypsin on neutravidin coated plates, TRF
  Tryspin binding signal (FU): 69349 FU
Human Nav1.7
  cumulative current loss: ~5%
Trypsin [2]
  phage binding to trypsin: superior binding to trypsin compared to the EET-II-Cow ULVC-Ab fusion
